Experiment: yeast display, Sf9 membrane polyspecificity reagent, FACS + sequencing; frameworks hold sequencing errors
How it was run: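 Genes from sorted yeast were amplified by colony PCR, read by MiSeq 2 × 250 sequencing and filtered on CDR length. These cells carried a synthetic nanobody library in Saccharomyces cerevisiae BJ5465 and were sorted by FACS into low and high (top ~1%) gates on anti-HA and streptavidin fluorescence. Polyreactivity is labelled according to the gate of origin.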

Sequence: QVQLVESVGGLVQAGGSLRLSCAASGSTFGYNAMGWYRKAPGKERELVAGITSSGGSTYYADSVKGRFTISRDNAKNTVYLQMNSLKPEDTAVYYCAKAFYRHSSPNNSEYWGQGTQVTVSS
- polyreactivity (PSR sort gate): low polyreactivity

Sequence: QVQLVESVGGLVQAGGSLRLSCAASGSTIGWNAMGWYRQAPGKERELVAAISSSGGSTNYADSVKGRFTISRDNAKNTVYLQMNCLKPEDTAVYYCAKGRRPGYGYGYWGHGTQVTVSS
- polyreactivity (PSR sort gate): low polyreactivity

Sequence: QVQLVESVGGLVQAGGSLRLSCAASGSTSRFYDMGSYSQAPGKERELVAAITQSGGSTRYADSVKGRFTISRENAKNTVYLQLNSLKPEDTAVNYCAARVRGYSVTRTKPASIGGGSWGQGTQVTVSS
- polyreactivity (PSR sort gate): high polyreactivity

Sequence: QVQLVESVGGLVQAGGSLRLSCAASGSTSYDYAMGWNRQAPGKERELVAAISGSSSTTYYADSVKGRFTISRDNAKNTVYLQMNSLKPEDTAVYYCNAVTTSGSGYGYWGQGTQVTVSS
- polyreactivity (PSR sort gate): low polyreactivity

Sequence: QVQLVESVGGLVQAGGSLRLSCAASGVIFYFYTMGWSRQAPGKERELVAGITWSGDSTYYADSVKGRFTISRDNAKNTVYLQMNSLTPEDTAVYYCAAGFDFGTRVSKGYDYWGHGTQVTVSS
- polyreactivity (PSR sort gate): low polyreactivity

Sequence: QVQLVESVGGLVQAGGSLRLSCAASVFIFRSYAMGWYRQAPGKERELVASISRRGASTYYADSVKGRFTISRDNAKNTVYLQMNSLKPEDTAVYYCNADGLRGFYTGAYDYDYWGQGTQVTVSS
- polyreactivity (PSR sort gate): high polyreactivity

Sequence: QVQLVESVGGLVQAGGSLRLSCAASVNIFITNAMGWYRQAPGKERELVADISFSGGSTYYADSVKGRFTISRDTAKNTVYLQMNSLIPEDTAVYYCAARALASVSAHKYDYWGQGTQVTVSS
- polyreactivity (PSR sort gate): low polyreactivity

Sequence: QVQLVESVGGLVQAGGSLRLSCAASVRTCRSNAMGWYRKAPGKEMEFVAAISISGTRTNYADSVKGRFTISRDNAKITVYLQMNSLKPEDTAVYYCARRYQIYDFFYHDLYDYWGQGTQVTVSS
- polyreactivity (PSR sort gate): low polyreactivity

Sequence: QVQLVESVGGLVQAGGSLRLSCAATGRTFAWYALGWYRQAPGKERELVAAISSGGSTYYADSVKGRFTISRDNAKNTVYLQMNSLKPEDTAVYYCAAEWHYIYAYDYWGQGTQVTVSS
- polyreactivity (PSR sort gate): low polyreactivity

Sequence: QVQLVESVGGLVQAGGSLRLSCADSGSIFAANAIGWFRQAPGKERELVAAISRSGNTYYADSVKGRFTISRDNAKNTVYLQMNSLKPEDTAVYYCAARRYAYGRTYGYWGQGTQVTVSS
- polyreactivity (PSR sort gate): high polyreactivity

Sequence: QVQLVESVGGLVQAGGSLRLSCGASGSIFVANAMGWYIQAPGKEREFVAAITGSGGSTYYADSVKGRFTISRDNAKNTVYLQMNSLKPEDTAVYYCTGDYTVKFGYWGQGTQVTVSS
- polyreactivity (PSR sort gate): low polyreactivity

Sequence: QVQLVESVGGLVQAGGSLRLSCPASGSIFKYNAMGWYRQSPGKERELVAAISSGGSTNYADSVKGRFTISRDNAKNTVYLQMNSLKPEDTAVYYCAKDRRRWYYTRDYWGQGTQVTVSS
- polyreactivity (PSR sort gate): low polyreactivity

Sequence: QVQLVESVGGLVQAGGSLRLSCPASGSTFRRYAMGWYRQAPGKERELVAAITRGGITYYADSVKGRFTISRDNAKNTFYLQMNSLKPEDTAVYYCAATTFGPYALYPRYYYWGQGTQVTVSS
- polyreactivity (PSR sort gate): high polyreactivity

Sequence: QVQLVESVGGLVQAGGSLRLSCTATGSNFGYNAMGSYRQAPGKEREFVAAISWRGGSTYYADSVKGRLTISRDYAKNTVYLQMNSLKPEDTAVYYCAAVPQGSKRGYYYWGQGTQVTVSS
- polyreactivity (PSR sort gate): high polyreactivity

Sequence: QVQLVESVGGLVQAGGSLRLSSAASGITFQYYDMGWYRQAPGKERELVAAIDTSGGSTYYADSVKGRFTISRDNEKNTVYLHMNSLKREDTSVYYGAACYYGYSVYGRMYYWGQGTQVTVSS
- polyreactivity (PSR sort gate): low polyreactivity

Sequence: QVQLVESVGGLVQAGGSLRLTCAASGFTFDKYAMGWYRQAPGKERELVAAISNSGGRTYYADSVKGRFTISRDNAKNTVYLQMNSLKPEDTAVYYCAAVALTRRYDYWGQGTQVTVSS
- polyreactivity (PSR sort gate): high polyreactivity

Sequence: QVQLVESVGGLVQAGGSLRLTCAASGFTFGPYAMGCYRQAAGKERELVAAITNRGGSTYADSVKGRFTISRDNAKNTVYLQMNSLKPEDTAVYYCATVSALEYNYWGQGTQVTVSS
- polyreactivity (PSR sort gate): low polyreactivity

Sequence: QVQLVESVGGLVQAGGSLSLSCAASGSTFKQYAMGWYRQAPGKERELVAAISSRGGSTHYADSVKGRFTISRDNAKYTVYLQMNSLKPEDTAVYYCARDTDPQYSRSSDYDYWGQGTQVTVSS
- polyreactivity (PSR sort gate): low polyreactivity

Sequence: QVQLVESVGGLVQAGGSLSLSCAASVFGRYAMGWYRPAPGKERELVARIYSSGGSTHYADSVKGRFTISRDNAKNTVYLQMNSLKPEDTAVYYCATGSTRWGCYYYWGQGTQVTVSS
- polyreactivity (PSR sort gate): high polyreactivity

Sequence: QVQLVESVGGLVQAGGSRRLTSAASGRTFREYAMGWYRQAPWKERELVAAISDSGDSTYYADSVKGRFTISRDNAKNTVYLQMNSLKPEDTAVYYCAADYYDYEYDYWGQGTQVTVSS
- polyreactivity (PSR sort gate): low polyreactivity

Sequence: QVQLVESVGGLVQAVGSLRLSCAASGRTFRHNAMGWYRQAHGKVRELVAAISSSGTNTHYADSVKGRFTISRDIAKNTVYLQMNSLQPEDTAVYYCAADRWGARRNQYHENGYWGQGTQVTVSS
- polyreactivity (PSR sort gate): high polyreactivity

Sequence: QVQLVESVGGLVQEGGSLRLSCDASGSIFLYAMGWYRQAPGKERELVAAINRGGGSTYYADSVKGRFTISRDNAKNTVYLEMNSLKPEVTAVYYCAVVYLLPRYWWRYDYWGQGTQVTVSS
- polyreactivity (PSR sort gate): low polyreactivity

Sequence: QVQLVESVGRLVQAGGSLRLSCAASGRIIYWNAKGWYRQAPGKERELVAGITTGGSTYYADSVKGRFTISRDNAKNTVYLQMNSLKPEDTAVYYCAARPFIRQRYGYWGKGTQVTVSS
- polyreactivity (PSR sort gate): high polyreactivity

Sequence: QVQLVESVGVLVQAGGSLRLSCAASGSTFSSYAMGWYRPAPGKERELVAVISSRGTSTSYADSVKGRFTISRDNAKNTVYLQMNSLKQEDTAVYYCAASRFRWVQRYDYWGQGTQVTVSS
- polyreactivity (PSR sort gate): high polyreactivity

Sequence: QVQLVESVRGLVQAGGSLRISCASSGSTFFTYPMGWYRQAPGKERELVASISIGGSTNYADSVKGRFTISRDNAKNTVYLQMNSLKPEDTAVYYCAKRYFTFGVDYDYWGQGTQVSVSS
- polyreactivity (PSR sort gate): low polyreactivity

Sequence: QVQLVESVRGLVQAGGSLRLSCASSGSTFYGYTLGWYRQAPGKERELVAAISWSGGSTYYADSVKGRFTISRDNAKNTVYLQMNSLKPEDTAVFYCAARWGYSRRGYRGYDYWGQGTQVTVSS
- polyreactivity (PSR sort gate): high polyreactivity

Sequence: QVQLVESVVGLVQAGGSLLISCAAYGLTFKGYAMVWYRQAPGKERELVAAITWDTGSTYYADSVKGRFSISRDNAKNTVYLQMNSLKPEDTAVYYCAAVGSTTTGVRRRGYWGHGTQVTVSS
- polyreactivity (PSR sort gate): high polyreactivity

Sequence: QVQLVESVVGLVQAGGSLRLSCADSGSTFRSNAMGWYRQAPGKETELVAGITSGTSTNYADSVKGRFTISRDNAKNTVYLQMNSLKPEDTAVYYCNTDRIWYGPEYDFWGQGTQVTVSS
- polyreactivity (PSR sort gate): low polyreactivity

Sequence: QVQLVESVVGLVQARGSLRLSSAATGRTFSRYAMGWYRQAPGKESELVATISWSGTSKYYADSVKGRFTISRDNAKNTVYLQMNSLKPEETAVYYCDAYYLTRFSILYYYWGLGTQVTVSS
- polyreactivity (PSR sort gate): high polyreactivity

Sequence: QVQLVESWGGLDQAGGSLRLSCAASGRILRTYAMGWYRQAPGKERELVAAITWSGGSTYYADSVKGRFTISRDNAKNTVYLQMNSLKPEDTAVYDCNALTPGYRIYDYWGQGTQVTVSS
- polyreactivity (PSR sort gate): high polyreactivity

Sequence: QVQLVESWGGLVQAGGILRLSCASYGFIFPIYAMGWYIQAPGKESELVALIRSGGSTYYADSVKGRFTISRDNAKNTVYLQMHSRKPEDTAVYYCKAKRYGMWGAAGRVGYDYWGQGTQVTVSS
- polyreactivity (PSR sort gate): high polyreactivity

Sequence: QVQLVESWGGLVQAGGSHRLSCAASGRTFPIYAMGWYRQAPGKERELVAAITYSGGSTYYADSVKGRFTISRDNAKNTVYLQMNSLKPEDTAVYYCAVDGTKPYWHQRYDYWGQGTQVTVSS
- polyreactivity (PSR sort gate): low polyreactivity

Sequence: QVQLVESWGGLVQAGGSLRISCAASGNIFRYAMGWYRQAPGKERELVAAITYRGSTTYYADSVKGRFTISCDNAKNTVYLQMISLKPEDTAVYYCAARASYTRRHVGRPYDYWGQGTQVSVSS
- polyreactivity (PSR sort gate): high polyreactivity

Sequence: QVQLVESWGGLVQAGGSLRLRCAASGRIFVSNAMGWYRQAPGKERELVAAISKRGASTYYADSVKGRFTISRDNAKNTVYLQMNSLKPEDTAVYYCNVVTPGGPNYDYWGQGTQVTVSS
- polyreactivity (PSR sort gate): high polyreactivity

Sequence: QVQLVESWGGLVQAGGSLRLSCAASGFTLYYYAMGWYRPAPGKERELVARISLRGGRTYYADSVKGRFTISRDNAKTTVYLQMNSLKPEESAVYYCAAVGRYPITWESGESDYWGQGTQVTVSS
- polyreactivity (PSR sort gate): high polyreactivity

Sequence: QVQLVESWGGLVQAGGSLRLSCAASGIIFQNYDMGWYRQAPGKERELVAAITGSGGSTYYADSVKGRFTISRDNAKNIVYLQMNSLKPEDTAVYYCAASSFVVSGYNKYYEYGYWGQGTQVTVSS
- polyreactivity (PSR sort gate): low polyreactivity

Sequence: QVQLVESWGGLVQAGGSLRLSCAASGLIFVGNAMGWYRQAPGKERELVAAISSRGGRTYYADSVKGRFTISRDNAKNTVYLQMNSLKPEDTAVYYCAARVWRYPYYWGQGTQVTVSS
- polyreactivity (PSR sort gate): high polyreactivity

Sequence: QVQLVESWGGLVQAGGSLRLSCAASGRIFYVYDMGWYRQAPGKERELVAAISWSGGSTSYADSVKGRFTISRDKAMYTVYLQMNSLKPEDTAVNYCAATSAIGWGYDYWGQGTQVNVSS
- polyreactivity (PSR sort gate): low polyreactivity

Sequence: QVQLVESWGGLVQAGGSLRLSCAASGRIIDRKAMGWYRQAPGKERELVAAISSSGSTNYADSVKGRFTFSRDNAKNTVYLQMISLKPEDTSVYYCAARWRSVLAAGTRPVSFDYWGQGTQVTVSS
- polyreactivity (PSR sort gate): low polyreactivity

Sequence: QVQLVESWGGLVQAGGSLRLSCAASGRIINQYAMGWYRQAPGKERELVAAITLNGGSTYYADSVKGRFTISRDNAKNTVYLQMNSLKPEDTAVYYCNNRYTHYSRKGVSYPKYDYWGQGNQVTVSS
- polyreactivity (PSR sort gate): high polyreactivity

Sequence: QVQLVESWGGLVQAGGSLRLSCAASGRILNYYDMGWYRQAPGKERELVAGISRGGSTTYADSVKGRFTISRDNAKNTVYLQMISLKPEDTAVYYCNADRSHYWLPYGVRFDYWGQGTQVNVSS
- polyreactivity (PSR sort gate): low polyreactivity

Sequence: QVQLVESWGGLVQAGGSLRLSCAASGRTFHSYAMGWYRQAPGKERELVAAITSSGGSTYYADSVKGRFTISRDNAKNTVYLQMNSLKPEDTAVYYCAAPYRYLSRGGEMGYWGQGTQVTVSS
- polyreactivity (PSR sort gate): high polyreactivity

Sequence: QVQLVESWGGLVQAGGSLRLSCAASGRTFRLYAMGWYRQAPGKERELVATNTSTGSTNYADSVKGRFTISRDNAKNTVFLQMNSLKPDDTAVYYCNAAWYNPKSWTQYPPFDYWGQGTQVTVSS
- polyreactivity (PSR sort gate): high polyreactivity
